Data taken from patent US20190010233A1.

How the values were obtained:
[1] = target: full length cyno PD-L1 on cells (cyno) (UniProt G7PSE7); experiment: FACS CHO-K1-cPD-L1, 0.41 nM mAb
[2] = target: human PD-L1^ECD-hFc protein (human) (UniProt Q9NZQ7); experiment: ELISA, 0.001 nM mAb
[3] = target: cyno PD-L1^ECD-hFc protein (cyno) (UniProt G7PSE7); experiment: ELISA, 0.001 nM mAb
[4] = target: full length human PD-L1 on cells (human) (UniProt Q9NZQ7); experiment: FACS CHOK1-hPD-L1, 30 nM mAb
[5] = target: human PD-L1^ECD-hFc protein (human) (UniProt Q9NZQ7); experiment: ELISA, 30 nM mAb
[6] = target: human PD-L1^ECD-hFc protein (human) (UniProt Q9NZQ7); experiment: ELISA, 0.01 nM mAb
[7] = target: full length cyno PD-L1 on cells (cyno) (UniProt G7PSE7); experiment: FACS CHO-K1-cPD-L1, 0.01 nM mAb
[8] = target: full length cyno PD-L1 on cells (cyno) (UniProt G7PSE7); experiment: FACS CHO-K1-cPD-L1, 0.1 nM mAb
[9] = target: full length cyno PD-L1 on cells (cyno) (UniProt G7PSE7); experiment: FACS CHO-K1-cPD-L1, 0.001 nM mAb
[10] = target: human PD-L1^ECD-hFc protein (human) (UniProt Q9NZQ7); experiment: ELISA, 0.0001 nM mAb
[11] = target: cyno PD-L1^ECD-hFc protein (cyno) (UniProt G7PSE7); experiment: ELISA, 0.0001 nM mAb
[12] = target: full length cyno PD-L1 on cells (cyno) (UniProt G7PSE7); experiment: FACS CHO-K1-cPD-L1, 11.11 nM mAb
[13] = target: full length human PD-L1 on cells (human) (UniProt Q9NZQ7); experiment: FACS CHO-K1-hPD-L1, 0.1 nM mAb
[14] = target: human PD-L1^ECD-hFc protein (human) (UniProt Q9NZQ7); experiment: ELISA, mAb concentration not given
[15] = target: hPD-L2 (human) (UniProt Q9BQ51); experiment: ELISA, mAb concentration not given
[16] = target: full length cyno PD-L1 on cells (cyno) (UniProt G7PSE7); experiment: FACS CHO-K1-cPD-L1, 0.3 nM mAb
[17] = target: full length cyno PD-L1 on cells (cyno) (UniProt G7PSE7); experiment: FACS CHO-K1-cPD-L1, 30 nM mAb
[18] = target: full length human PD-L1 on cells (human) (UniProt Q9NZQ7); experiment: FACS CHOK1-hPD-L1, 0.3 nM mAb
[19] = target: cyno PD-L1^ECD-hFc protein (cyno) (UniProt G7PSE7); experiment: ELISA, 30 nM mAb
[20] = target: human PD-L1^ECD-hFc protein (human) (UniProt Q9NZQ7); experiment: ELISA, 0.0003 nM mAb
[21] = target: cyno PD-L1^ECD-hFc protein (cyno) (UniProt G7PSE7); experiment: ELISA, 0.0003 nM mAb
[22] = target: human PD-L1^ECD-hFc protein (human) (UniProt Q9NZQ7); experiment: ELISA, 3 nM mAb
[23] = target: cyno PD-L1^ECD-hFc protein (cyno) (UniProt G7PSE7); experiment: ELISA, 3 nM mAb
[24] = target: human PD-L1^ECD-hFc protein (human) (UniProt Q9NZQ7); experiment: ELISA, 1.111 nM mAb
[25] = target: cyno PD-L1^ECD-hFc protein (cyno) (UniProt G7PSE7); experiment: ELISA, 1.111 nM mAb
[26] = target: full length human PD-L1 on cells (human) (UniProt Q9NZQ7); experiment: FACS CHOK1-hPD-L1, 0.003 nM mAb
[27] = target: human PD-L1^ECD-hFc protein (human) (UniProt Q9NZQ7); experiment: ELISA, 10 nM mAb
[28] = target: full length human PD-L1 on cells (human) (UniProt Q9NZQ7); experiment: FACS CHOK1-hPD-L1, 0.0003 nM mAb
[29] = target: full length cyno PD-L1 on cells (cyno) (UniProt G7PSE7); experiment: FACS CHO-K1-cPD-L1, 0.001 nM mAb as printed (second such column)
[30] = target: full length cyno PD-L1 on cells (cyno) (UniProt G7PSE7); experiment: FACS CHO-K1-cPD-L1, 33.33 nM mAb
[31] = target: human PD-L1^ECD-hFc protein (human) (UniProt Q9NZQ7); experiment: ELISA, 0.370 nM mAb
[32] = target: cyno PD-L1^ECD-hFc protein (cyno) (UniProt G7PSE7); experiment: ELISA, 0.370 nM mAb
[33] = target: human PD-L1^ECD-hFc protein (human) (UniProt Q9NZQ7); experiment: ELISA, 0.123 nM mAb
[34] = target: cyno PD-L1^ECD-hFc protein (cyno) (UniProt G7PSE7); experiment: ELISA, 0.123 nM mAb

full length human PD-L1 on cells (human), sequence (Q9NZQ7 19-290 limits assumed): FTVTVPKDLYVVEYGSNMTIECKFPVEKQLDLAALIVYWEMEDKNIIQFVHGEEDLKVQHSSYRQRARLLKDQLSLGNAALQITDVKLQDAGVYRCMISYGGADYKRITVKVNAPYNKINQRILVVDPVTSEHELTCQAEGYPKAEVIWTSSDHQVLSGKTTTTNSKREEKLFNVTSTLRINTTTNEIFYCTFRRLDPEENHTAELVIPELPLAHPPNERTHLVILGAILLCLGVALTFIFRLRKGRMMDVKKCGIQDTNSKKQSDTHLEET
full length cyno PD-L1 on cells (cyno), sequence (G7PSE7 entry or part of it limits assumed): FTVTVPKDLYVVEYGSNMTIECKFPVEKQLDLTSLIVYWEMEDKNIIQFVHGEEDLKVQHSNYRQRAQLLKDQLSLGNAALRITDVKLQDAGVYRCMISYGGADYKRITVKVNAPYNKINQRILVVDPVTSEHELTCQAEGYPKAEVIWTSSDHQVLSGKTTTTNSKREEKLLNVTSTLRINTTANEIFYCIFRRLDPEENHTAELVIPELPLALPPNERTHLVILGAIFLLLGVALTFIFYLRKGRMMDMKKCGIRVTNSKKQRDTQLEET
cyno PD-L1^ECD-hFc protein (cyno), sequence (G7PSE7 entry or part of it limits assumed): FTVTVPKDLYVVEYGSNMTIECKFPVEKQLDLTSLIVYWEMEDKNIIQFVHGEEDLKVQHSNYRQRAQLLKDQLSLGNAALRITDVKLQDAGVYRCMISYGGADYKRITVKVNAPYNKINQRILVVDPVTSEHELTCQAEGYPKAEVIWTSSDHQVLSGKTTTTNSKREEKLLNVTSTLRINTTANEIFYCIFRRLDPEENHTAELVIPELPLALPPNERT
human PD-L1^ECD-hFc protein (human), sequence (Q9NZQ7 19-239): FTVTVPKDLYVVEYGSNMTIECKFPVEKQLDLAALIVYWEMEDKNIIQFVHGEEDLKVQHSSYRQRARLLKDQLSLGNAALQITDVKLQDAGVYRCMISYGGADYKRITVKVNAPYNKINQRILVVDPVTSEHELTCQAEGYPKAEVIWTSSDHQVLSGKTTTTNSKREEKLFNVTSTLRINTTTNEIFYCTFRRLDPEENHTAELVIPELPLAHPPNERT
hPD-L2 (human), sequence (Q9BQ51 20-219 limits assumed): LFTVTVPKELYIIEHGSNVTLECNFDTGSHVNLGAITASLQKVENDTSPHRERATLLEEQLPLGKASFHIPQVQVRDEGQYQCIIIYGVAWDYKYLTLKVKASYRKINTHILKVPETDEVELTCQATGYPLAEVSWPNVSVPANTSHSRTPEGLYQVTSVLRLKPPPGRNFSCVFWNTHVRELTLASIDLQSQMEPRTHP

Q: What does the source list for IgG control (human IgG) (antibody)?
A: Mean fluorescence intensity [1]: 2.69; OD450 nm [2]: 0.149; OD450 nm [3]: 0.0972; Mean fluorescence intensity [4]: 5.73; OD450 nm [5]: 0.12; OD450 nm [6]: 0.154; Mean fluorescence intensity [7]: 1.87; Mean fluorescence intensity [8]: 2.2; Mean fluorescence intensity [9]: 1.9; OD450 nm [10]: 0.162; OD450 nm [11]: 0.0988; Mean fluorescence intensity [12]: 2.93; Mean fluorescence intensity [13]: 2.55; OD450 nm [14]: 0.206; OD450 nm [15]: 0.189; Mean fluorescence intensity [16]: 3.73; Mean fluorescence intensity [17]: 4.12; Mean fluorescence intensity [18]: 3.16; OD450 nm [19]: 0.306; OD450 nm [20]: 0.338; OD450 nm [21]: 0.273; OD450 nm [22]: 0.277; OD450 nm [23]: 0.282; OD450 nm [24]: 0.16; OD450 nm [25]: 0.16; Mean fluorescence intensity [26]: 3.03; OD450 nm [27]: 0.15; Mean fluorescence intensity [28]: 2.79; Mean fluorescence intensity [29]: 7.33; Mean fluorescence intensity [30]: 2.94; OD450 nm [31]: 0.12; OD450 nm [32]: 0.12; OD450 nm [33]: 0.11; OD450 nm [34]: 0.11
